# According to article PMC4379586:
# Tests used:
# [1] = system: MDM2 C-terminal RING domain (GST fusion) (human); assay: intrinsic protein fluorescence titration; settings: ITC: 10 mM Hepes pH 7.2, 150 mM NaCl, temperature not stated; fluorescence titration (ex 280 nm, em 335 nm): buffer and temperature not stated
# [2] = system: MDM2 C-terminal RING domain (GST fusion) (human); assay: ITC; settings: ITC: 10 mM Hepes pH 7.2, 150 mM NaCl, temperature not stated; fluorescence titration (ex 280 nm, em 335 nm): buffer and temperature not stated
substance,measurement,setting,value
"XIAP IRES RNA (small, RNP core binding site)",Kd,[1],680 nM
same,Kd,[2],700 nM
